Measured values as given in PMC5419085.

Molecular target: full-length human LRP1 (low-density lipoprotein receptor-related protein 1) (human)
Assay: ELISA; full-length human LRP1 (5 nM) coated on microtiter plates; biotinylated ADAMTS-5-2 (6 nM) with or without antibodies or RAP (each 100 nM); detected by AP-conjugated streptavidin; TNC buffer, 2 h, room temperature; bound amount as % of that without antibodies or RAP

percent inhibition of ADAMTS-5 binding to LRP1 at 100 nM: 75%
Substance: receptor-associated protein (RAP) (from UniProt P30533 35-357) (natural protein)
